Measurements published in patent US20260234290.

Key:
Test in all cases: BLI
2B12 Fab = conditions: 2 uM Fab; RT; weak binder; printed as second 3B12 in Table 4, 2B12 in text
3B11 Fab = conditions: 2 uM Fab; RT; described as weak binding
2C11 Fab = conditions: 2 uM Fab; RT; weak binder
3C8 Fab = conditions: 2 uM Fab; RT; described as weak binding
3B12 Fab = conditions: 2 uM Fab; RT; described as weak binding

Sequence: CATTTCCCGTAAATC (double strand) [CS3D (cyclic STAT3 decoy)]
- koff (2B12 Fab): 0.37 s⁻¹
- koff (3B11 Fab): 0.205 s⁻¹
- koff (2C11 Fab): 0.419 s⁻¹
- koff (3C8 Fab): 0.277 s⁻¹
- koff (3B12 Fab): 0.0764 s⁻¹
